This data set can be described thus: protein stability index of a GFP-peptide fusion (GPS, HEK-293T) (PSI 1-6); higher = more stable.
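Note: lentivirally expressed fusions sorted by FACS into six bins by GFP to DsRed ratio, PSI derived from sequencing read proportions per bin multiplied by bin number.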

B1: CRYL1 WT (peptide)
chain: RNALENIRKEMKLLEQAGSLKGSL
B1: the protein stability index (parent: IOH81349_8, c terminus: a fixed tail appended) amounted to 3.44.

B2: COX4I1 WT (peptide)
chain: VAHVKHLSASQKALKEKEKASWSS
Turning to B2, under “parent: IOH62819_9, c terminus: a fixed tail appended”, the protein stability index was 3.21.

B3: PLD5 WT (peptide)
chain: WIVDKQHVYIGSAGLDWQSLGQMK
B3: where the note is “parent: IOH63495_23, c terminus: a fixed tail appended”, the protein stability index was 1.79.

B4: LYSMD4 WT (peptide)
chain: LLQRELAQEDSLNKLALQYGCKVA
Regarding B4, under “parent: IOH63099_13, c terminus: a fixed tail appended”, the protein stability index was determined as 1.92.

B5: COX4I1 WT (peptide)
chain: FDKEWVAKQTKRMLDMKVNPIQGL
For B5, where the note is “parent: IOH62819_23, c terminus: a fixed tail appended”, the protein stability index is 1.75.

B6: KCNA3 WT (peptide)
chain: YQSGGRIRRPVNVPIDIFSEEIRF
Regarding B6, where the note is “parent: IOH61428_28, c terminus: a fixed tail appended”, the protein stability index came to 2.

B7: PBXIP1 WT (peptide)
chain: LPVETLGPASRMDPESERALQAPH
As for B7, the protein stability index (parent: IOH61084_4, c terminus: a fixed tail appended) was 4.39.

B8: DUSP5 WT (peptide)
chain: YSEYPECCVDVKPISQEKIESERA
Consider B8, for which the protein stability index (parent: IOH62976_23, c terminus: a fixed tail appended) turned out to be 4.09.

B9: TCEB3B WT (peptide)
chain: STTALGDKQRKANESKGTRESWDS
As for B9, the protein stability index (parent: IOH63382_68, c terminus: a fixed tail appended) is 3.77.

B10: SLC25A39 WT (peptide)
chain: LTSDLYAPMVAGALARLGTVTVIS
In the case of B10, the protein stability index (parent: IOH63154_27, c terminus: a fixed tail appended) stood at 2.94.

B11: IQUB WT (peptide)
chain: EADYEDDSKIAFLMQLQDIQYLTE
As for B11, the protein stability index (parent: IOH62149_110, c terminus: a fixed tail appended) is 3.05.

B12: CPXM2 WT (peptide)
chain: EILGCPLPDPNNYYHRRNEMTTTD
B12: the protein stability index (parent: IOH80553_49, c terminus: a fixed tail appended) came to 3.32.

B13: IQUB WT (peptide)
chain: CRNCINLQNEAQKRESFLKYKCLL
Regarding B13, under “parent: IOH62149_105, c terminus: a fixed tail appended”, the protein stability index was 2.

B14: CHIT1 WT (peptide)
chain: CSWKGATKQRIQDQKVPYIFRDNQ
With B14, the protein stability index (parent: IOH63601_52, c terminus: a fixed tail appended) worked out at 2.59.

B15: PBXIP1 WT (peptide)
chain: EKQKQPRWREGTKDSHDPLPSWAE
In the case of B15, the protein stability index (parent: IOH61084_93, c terminus: a fixed tail appended) amounted to 2.16.

B16: PLD5 WT (peptide)
chain: KRTYWPDLDAKIREALVLRSVRVR
Turning to B16, the protein stability index (parent: IOH63495_45, c terminus: a fixed tail appended) worked out at 2.02.

B17: ZMYND11 WT (peptide)
chain: YCSIKCQQEHWHAEHKRTCRRKR
B17: the protein stability index (parent: IOH62570_82, c terminus: native) was 2.53.

B18: ACSBG2 WT (peptide)
chain: FAQADALKGTLVSTLKEVKPTVFI
As to B18, the protein stability index (parent: IOH62594_50, c terminus: a fixed tail appended) came to 1.64.

B19: TNXB WT (peptide)
chain: LLQRELMVPGTRHSAVLRDLRSGT
Consider B19, for which the protein stability index (parent: IOH81617_23, c terminus: a fixed tail appended) was determined as 2.54.

B20: CCDC6 WT (peptide)
chain: FTPPTSLTRAGMSYYNSPGLHVQH
For the protein B20, where the note is “parent: IOH61736_64, c terminus: a fixed tail appended”, the protein stability index turned out to be 1.82.

B21: KRT71 WT (peptide)
chain: ELRNVQDVVEDYKKRYEEEINKRT
Consider B21, for which the protein stability index (parent: IOH63384_35, c terminus: a fixed tail appended) was found to be 3.49.

B22: SOAT2 WT (peptide)
chain: SLGKQKVFIIRKSLLDELMEVQHF
For the protein B22, the protein stability index (parent: IOH63195_17, c terminus: a fixed tail appended) came out at 2.25.

B23: SASS6 WT (peptide)
chain: QKELQDVGQSLRIKEQEVCKLQEQ
As for B23, the protein stability index (parent: IOH63533_44, c terminus: a fixed tail appended) was 5.02.

B24: MIA2 WT (peptide)
chain: SVIEPVQESSFRSRKIAVEDENDL
In the case of B24, for the setting “parent: IOH80698_41, c terminus: a fixed tail appended”, the protein stability index is 5.18.

B25: ACSBG2 WT (peptide)
chain: TPMTIPEFFRESVNRFGTYPALAS
As for B25, for the setting “parent: IOH62594_9, c terminus: a fixed tail appended”, the protein stability index stood at 2.12.

B26: ADAMTSL2 WT (peptide)
chain: KKPPEESTCFERPCFKWYTSPWSE
As to B26, the protein stability index (parent: IOH80445_141, c terminus: a fixed tail appended) is 2.4.

B27: CCDC6 WT (peptide)
chain: ASVTIQARAEQEEEFISNTLFKKI
B27: under “parent: IOH61736_17, c terminus: a fixed tail appended”, the protein stability index came to 3.51.

B28: NFE2L1 WT (peptide)
chain: TLDGYGIHPKSIDLDNYFTARRLL
As for B28, the protein stability index (parent: IOH81649_11, c terminus: a fixed tail appended) came out at 1.93.

B29: SPATS1 WT (peptide)
chain: GRKKYDIDPRNGIPKLTPGDNPYM
Turning to B29, the protein stability index (parent: IOH63376_32, c terminus: a fixed tail appended) turned out to be 3.52.

B30: TNXB WT (peptide)
chain: FSEIRETSAKVNWMPPPSRADSFK
As for B30, the protein stability index (parent: IOH81617_33, c terminus: a fixed tail appended) amounted to 3.45.

B31: MFF WT (peptide)
chain: MAEISRIQYEMEYTEGISQRMRVP
For the protein B31, the protein stability index (parent: IOH62657_1, c terminus: a fixed tail appended) worked out at 2.65.

B32: KRT71 WT (peptide)
chain: FGSRSLYSLGGVRSLNVASGSGKS
For B32, the protein stability index (parent: IOH63384_8, c terminus: a fixed tail appended) was 1.86.

B33: MIA2 WT (peptide)
chain: DMVSNIELPTRIHEEVYFEPSSSK
B33: under “parent: IOH80698_88, c terminus: a fixed tail appended”, the protein stability index was 3.89.

B34: HSP90AB1 WT (peptide)
chain: YHTSQSGDEMTSLSEYVSRMKETQ
B34: for the setting “parent: IOH61079_77, c terminus: a fixed tail appended”, the protein stability index came to 3.7.

B35: PBXIP1 WT (peptide)
chain: LQQLRARLQGLEADCVRGPDGVCL
Regarding B35, the protein stability index (parent: IOH61084_56, c terminus: a fixed tail appended) was 2.22.

B36: IQUB WT (peptide)
chain: KIREKEEWIKLDYHRRHNPKTNED
In the case of B36, for the setting “parent: IOH62149_64, c terminus: a fixed tail appended”, the protein stability index was found to be 4.36.

B37: CPXM2 WT (peptide)
chain: TASTKNCMVGYDMGATRCDFTLSK
In the case of B37, for the setting “parent: IOH80553_117, c terminus: a fixed tail appended”, the protein stability index is 2.15.

B38: MIA2 WT (peptide)
chain: NSISSDKEATVPCTEILTEKKDTI
Consider B38, for which the protein stability index (parent: IOH80698_58, c terminus: a fixed tail appended) was 5.37.

B39: SETD8 WT (peptide)
chain: GKQAPRKKAQGKTQQNRKLTDFYP
For B39, the protein stability index (parent: IOH80936_28, c terminus: a fixed tail appended) came to 2.67.

B40: LPCAT4 WT (peptide)
chain: HDPLYGKLFSTYLRPPHTSRGTSQ
Turning to B40, where the note is “parent: IOH62663_80, c terminus: a fixed tail appended”, the protein stability index was determined as 2.6.

B41: SETD8 WT (peptide)
chain: FVVEYHGDLIEITDAKKREALYAQ
For the protein B41, the protein stability index (parent: IOH80936_41, c terminus: a fixed tail appended) amounted to 2.1.

B42: C1orf55 WT (peptide)
chain: FTSPDYQQQCHEMAERLEDSVLKG
Turning to B42, the protein stability index (parent: IOH61664_26, c terminus: a fixed tail appended) came out at 2.15.

B43: KCNA3 WT (peptide)
chain: GERVVINISGLRFETQLKTLCQFP
Turning to B43, the protein stability index (parent: IOH61428_18, c terminus: a fixed tail appended) stood at 2.31.

B44: PBXIP1 WT (peptide)
chain: FGEDGIFRHDRLRFRDFVDALEDS
Regarding B44, the protein stability index (parent: IOH61084_108, c terminus: a fixed tail appended) came out at 2.59.

B45: SPATS1 WT (peptide)
chain: YPEQSKGFHKAGSMLPPVNFSIVP
For B45, the protein stability index (parent: IOH63376_36, c terminus: a fixed tail appended) was 1.94.

B46: MFF WT (peptide)
chain: DDLTVVDAASLRRQIIKLNRRLQL
For the protein B46, where the note is “parent: IOH62657_32, c terminus: a fixed tail appended”, the protein stability index was 2.1.

B47: HSP90AB1 WT (peptide)
chain: EADKNDKAVKDLVVLLFETALLSS
Take B47: the protein stability index (parent: IOH61079_108, c terminus: a fixed tail appended) came to 1.84.

B48: MFF WT (peptide)
chain: YTEGISQRMRVPEKLKVAPPNADL
Regarding B48, the protein stability index (parent: IOH62657_3, c terminus: a fixed tail appended) was found to be 2.94.

B49: CCDC6 WT (peptide)
chain: TLFKKIQALQKEKETLAVNYEKEE
B49: under “parent: IOH61736_20, c terminus: a fixed tail appended”, the protein stability index worked out at 3.05.

B50: HSP90AB1 WT (peptide)
chain: QVANSAFVERVRKRGFEVVYMTEP
Regarding B50, the protein stability index (parent: IOH61079_83, c terminus: a fixed tail appended) was 2.26.

B51: SETD8 WT (peptide)
chain: KKAQGKTQQNRKLTDFYPVRRSSR
As to B51, the protein stability index (parent: IOH80936_29, c terminus: a fixed tail appended) was 2.19.

B52: YPEL3 WT (peptide)
chain: SKPKTFQAYLDDCHRRYSCAHCRA
For B52, the protein stability index (parent: IOH80494_8, c terminus: a fixed tail appended) was determined as 1.87.

B53: PLD5 WT (peptide)
chain: VTYMNMTAYNKGRLQSSFWIVDKQ
Consider B53, for which, for the setting “parent: IOH63495_20, c terminus: a fixed tail appended”, the protein stability index amounted to 2.36.
